Legend:
[1] = tested on: K4 kissing-loop RNA reporter; assay: apparent KD of K4 kissing-loop reporter; higher = weaker reporter binding; settings: Eterna round: R107;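 also: bound reporter read as fluorescence of individual clusters on recovered sequencing chips by microscopy, with normalized cluster intensities fitted with a binding model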
Description: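 RNA-MaP round R107: designed RNA switches with theophylline, tryptophan, arginine or FMN aptamers are transcribed on-chip within common flanks. They are titrated with a labelled K4 kissing-loop RNA reporter in RNA-MaP buffer (100 mM Tris pH 7.5, 80 mM KCl, 4 mM MgCl2), without ligand or with the indicated ligand. Median apparent KD per design.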

[2] = tested on: MS2 coat protein; assay: apparent KD of MS2 coat protein; designed switch direction (-1 OFF switch, 1 ON switch): -1; higher = weaker reporter binding
Summary of the method: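 On Illumina chips, designed RNA switches with common flanks were made by stalled E. coli RNA polymerase. Titrations with SNAP-549-labelled MS2 coat protein, doubling from 0.7 or 1.5 nM to 3 µM, were done with no input, with 200 uM small-molecule ligand, or with an oligonucleotide input. Apparent KD is the median per design over clusters, from curve fits of normalised cluster fluorescence.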

[3] = input ligand: theophylline 20 uM
[4] = input ligand: tryptophan 2.4 mM
[5] = Eterna round: R95, input ligand: FMN 200 uM
[6] = Eterna round: R95, input ligand: microRNA oligo, concentration not stated
[7] = Eterna round: R95, input ligand: none

| Sequence | apparent KD of K4 kissing-loop reporter ([1]; input ligand: FMN 200 uM) [nM] | apparent KD of K4 kissing-loop reporter ([1]; input ligand: arginine 13.2 mM) [nM] | apparent KD of K4 kissing-loop reporter ([1]; input ligand: none) [nM] | apparent KD of K4 kissing-loop reporter [1, 3] [nM] | apparent KD of K4 kissing-loop reporter [1, 4] [nM] | apparent KD of MS2 coat protein [2, 5] [nM] | apparent KD of MS2 coat protein [2, 6] [nM] | apparent KD of MS2 coat protein [2, 7] [nM] | apparent KD of MS2 coat protein ([2]; input ligand: FMN 200 uM) [nM] | apparent KD of MS2 coat protein ([2]; input ligand: microRNA oligo, concentration not stated) [nM] | apparent KD of MS2 coat protein ([2]; input ligand: none) [nM] |
| --- | --- | --- | --- | --- | --- | --- | --- | --- | --- | --- | --- |
| AACGUUUUGAGAAGGAGCGCGUUAAGCAGUGAUGUUGCUGUAUUUUAUCCAAUUCAUAUAUCGCAGGUAGGUCGCUCAAUACGUA [JR_Nu_SSArginiB_Sub027] | 574 | 496 | 557 | 534 | 432 |  |  |  |  |  |  |
| CCUGUGUGUGAAGGAUAUAUUUCGCAUUAAAACUAGUGAUGUUGGUAAAUGGCACAAUCCGUAGCAAUAGAAGGUCACUCCGGAA [theeternabot_sameState_KL_FMN_B_22] | 499 | 445 | 793 | 498 | 524 |  |  |  |  |  |  |
| CACCUGCCAUAAGGAUAUUCGUCUUUGCGCUUCCAGUGAUGUUGGAGAUCGCAACACAUGGUCAUAGAAGAAGGUAUGGUAUUAA [theeternabot_sameState_KL_FMN_B_35] | 154 | 186 | 195 | 191 | 186 |  |  |  |  |  |  |
| UGGCGAGUGAUGUUCGUUGUUGUUGUGUGUCGAGGACCGGUACGGCCGCCACUCGAGUUGGUUGUUGUUGUUGCUGUUGUUGCUG [#04 K4 Tryptophan A Same State] | 158 | 124 | 155 | 130 | 87.6 |  |  |  |  |  |  |
| UGGACCUGACUCGAUAAGAGUCAAAGGGAUACCAGCCACGAAAGUGGCCCUUGGCAGCUCUGCCAGUGAUGUUGGUCAAGGUCCU [#SwitchBubble 6 #StaticStem] | 925 | 701 | 1310 | 590 | 854 |  |  |  |  |  |  |
| AUGCGCGCGGCGGCCGCCACUCGCAUGAGAGUGAUGUUCUCGCCGGGCCCGAAAGGGCCCGGUGUGAGGACCGGGCCGGGCUGCG [#2 Same State - Tryptophan B Attempt #15 (HarryS)] | 176 | 64.9 | 145 | 91.8 | 237 |  |  |  |  |  |  |
| GGAUCCACCAGUGAUGUUGGAGAAAACUCCAAGGAUAUGACGAAAGUCAGAAGGUGGUAGACUGGACAAAGUCCGGUCGGAUCCA [FmnA 23 #SwitchBubble #K4Early] | 719 | 113 | 126 | 68.1 | 160 |  |  |  |  |  |  |
| AAUUAACAAGCAAGAUCCUACAUGAGGAUCACCCAUGUGCUCGUCUUAUAAAGUACUAUCACGAAAGUGAUAGUACA [Mat - Sensor v3 - turn-off var 1 - Eli Mod - D57] (puzzle: Sensor v3, turn-off variant 1) |  |  |  |  |  | 217 | 357 | 197 |  |  |  |
| GGUUGGCGAGGAUAUACAUGAGGAUCACCCAUGUGAGAAGAAAAAGUGAGGAAGAAAAGUAGAAGGCGCUGACG [Mat - Exclusion 3 - Mod of Salish D1] (puzzle: Exclusion 3) |  |  |  |  |  | 74 | 103 | 81.5 |  |  |  |
| CUUGCACGACGAGGAUAUCGUAAACAUGAGGAUCACCCAUGUAGGUGGCGUCGUCCUCUAUCUUGCGAGAAGGCGUAAAAUUAA [Begeeda] (Eterna round: R96, puzzle: Exclusion NG 2) |  |  |  |  |  |  |  |  | 82.6 | 47.1 | 39.4 |
| AUAAGCUUUGAGAUCCUUAACAUGAGGAUCACCCAUGUUCGUCUUAUGAUGGUCUGAUCCCUGAGGAUCGGACCGUU [JL-sv1-2.02 Brourd Mod] (puzzle: Sensor v3, turn-off variant 1) |  |  |  |  |  | 262 | 10.4 | 257 |  |  |  |

Source: the supplement of paper PMC9170038
